Results published in paper PMC6926487.

Target: GST-Rac1A, active (GTPγs-bound), P34144
Assay: pull-down (GST-Rac1A), immunoblot quantification
Details: chain shown with the change, mean ± SEM, n = 3, parent: 1.9% ± 0.9% SEM

B1: GFP-WASP (Dictyostelium Wiskott-Aldrich syndrome protein, wild type) I173A; F179A (protein)
chain: MGSPTISDQEKSQVAFIAGSSSDIHSTTVARLYEGRQGRWEFMAVGIVSVVSNRVDKTNYIKVFDLKANYRIIFEQEIYDTFEFQKQRDFFFAFEGDSCVYGLSFADVTEAAEFYGQLLNCKQGNIGKTAAINPNTSSTKITASTPAPKVEKKKEKKGFMSKFFSSEEKDLEASAPTNAKHESHIGWDPENGFDIKNIPPDWRKLFQSAGIKKSELKNAETAQFIVNIIGEQMVGGSAPPPTQPGRSAPPAPPSSNQPGRSAPPPPPSVGKSAPPPPPPSHKTPAAPPSGGGAPPPPPPPPPPSSGPPPPPPPMASAPPSSGGGGASGGGRNDLLASIRSGASLKAVDKTNPLPDIQSLGNEGSRSLADTLAAAMANRRGGMREDDEEDDDDDDEWSDY
  response (% binding to GTPγS-loaded Rac1A): 0.1
